Assay results as given in PMC11106487.
Where “and” joins values, the source holds several entries; their conditions need not be identical. Equal entries are not always repeated.

Key:
[1] = biological target: GFP-FR (GFP fused to the GPI attachment signal of the folate receptor), expressed in MDCK cells; test: number and brightness (N&B); live polarized MDCK cells, plasma membrane pool only: cycloheximide 90 min, then with or without EGTA still in the presence of cycloheximide
[2] = biological target: GFP-FR (GFP fused to the GPI attachment signal of the folate receptor), expressed in MDCK cells; test: number and brightness (N&B); live polarized MDCK cells, Golgi pool: apical trypsin 25 ug/mL for 25 min to remove the surface pool, untreated (CTR), imaged at the Golgi level
[3] = biological target: GFP-FR (GFP fused to the GPI attachment signal of the folate receptor), expressed in MDCK cells; test: number and brightness (N&B); live polarized MDCK cells on filters, apical surface, CO2-independent medium pH 7.4; control cells and cells treated with latrunculin A (6 uM, 5 min), jasplakinolide (5 uM, 5 min) or blebbistatin (50 uM, 90 min); also after EGTA followed by calcium replenishment for 3 h; B-values ascribed to oligomer classes by a calibration curve of monomeric, dimeric and trimeric GFP
[4] = biological target: GFP-FR, stably expressed in CHO cells; test: number and brightness (N&B); live CHO cells, 2 days in culture, cell surface imaged at the cell periphery; untreated control

Substance | mean brightness (B), plasma membrane pool, control [1] | mean brightness (B), plasma membrane pool, upon EGTA [1] | mean brightness (B), Golgi pool, control [2] | brightness (B) [3] | brightness (B) upon latrunculin A [3] | mean brightness (B), control of the EGTA experiment [3] | stoichiometry N [3] | brightness (B) [4] | stoichiometry N [4]
GFP-FR (GFP fused to the GPI attachment signal of the folate receptor), expressed in MDCK cells | 1.19 | 1.2 | 1.2 | 1.21 | 1.23 | 1.29 | 3 and 4 |  | 
GFP-FR, stably expressed in CHO cells |  |  |  |  |  |  |  | 1.3 | 3 and 4
